According to the DeepSol protein solubility set:

Experiment: soluble on expression in E. coli; label from the status in PepcDB or PDB records

Soluble on expression in E. coli, not soluble:
MGSDKIHHHHHHMTITAMLNPVWIQTFATVAAARSFTEAGRQLGLSQSSVSDHIRRLEQSVGRRLFVRDTHSLSMTPDGEALLVHARLILEALARAESQFTAPRLRGRVRLGTSEDLAQGPLSGVLSAFRNTHPDVEMEITIAMTSKLYELMDAGSLDLMLGKRRQGDRRGVPLFRGSLEWLARPGTVVDLSQPLPLILVHEPSVTRSVVLDTLAKAGCQWQVVCSSSSHSGCLAAARGGLGLTVRSRYLYGEGVAPPLNWEKLPALPEVEFISLSARRLSQPAETLLRLLQKSDLRAASSWTSA
MGSDKIHHHHHHMTIWVRNGNNAATEQEISAKETELGLFLPAEYKELLLKQNGGLIRKNHFPTNEPTSYGLDVAEIYYLASLNELLTDIPEQNDVDLAGKQVYFHRDESRYIGFSYADNKSLPSIIYVDFETLQTLVVAENMAEFLEALYFSPFPVDFAEQFPVKKLDQILASSNVKKTKQLLELLEDYPDKKWYLETLIRLLQKNEIPYNIVVYQSFENQLLYFRRKLVPELVEKIFAMLKDCDGIDQSATTELYKEWE
MGSDKIHHHHHHMTKARKVLVSALCFTALIGEAAVGREQVVLKPSGQWNINYADESCQLARTFGVGDQKTLVQFERFGPENGFALMIVSPLLKFQENFRAVPNRMLHPTKRQYLDTVFQFLPGGEPYKQPGIPAMDAASRQPTLMAFLSLEGPRKDAAPTATGTASASEDRKLTNEERLALEKATNALLVEQPFNDPIRFELGSLAQPFATLAACTDDLVRSWGLQTDPEHAAVNPPKPIGSPSEWFDDKKLAERVWSKRENAIIYFRMIVSDKGAPESCVIQDSSQTTELRDLSCRALMGKARFTPGTNAAGQSVRSVYRGAVRYFTSRN
MGSDKIHHHHHHMTKLAIMSDLHIDLNHFSTFETKTLINLLKKEKIDHLHIAGDISNHFTKDTLPFINNLKKHIKLSYNLGNHDMLDLTETEIQRLDFQTYRFDKKMLLAFHGWYDYSFSNNRDIKDVEKLKKTFWFDRRLKRPNNDVTIQASILKRLDEILAKVDSSNIIIAMHFVPHKQFTMTHPRFSPFNAFLGSQAYHDLFQKYHIKDVVFGHAHRSFGDVKIGETTYHSRPLGYIREWNLTIDFVNQNPNHNPNLTWNLSKRYNAVKHLDSFENYRKKYFEDELRNSMTIFDC
MGSDKIHHHHHHMTKLPATSDIYISFFMFTTNLQPDNLDYRRIVVAHIKKLQRFGYSGFEFPIAPGLPENYAQDLENYTNLRHYLDSEGLENVKISTNVGATRTFDPSSNYPEQRQEALEYLKSRVDITAALGGEIMMGPIVIPYGVFPTTDFNEPIWSDELQEHLKVRYANAQPILDKLGEYAEIKKVKLAIEPITHWETPGPNKLSQLIEFLKGVKSKQVGVVIDSAHEILDGEGPEIFKTQVEYLAQQGRLHYVQVSPPDRGALHTSWLPWKSFLTPIVKVYDGPIAVEIFNAIPAFTNSLRLTRRKFWIPDEDPPNQYPNAYDIADEAIKVTRKELKKIGSK
MGSDKIHHHHHHMTKPNQDAIGMLPFKQSTVSLQVQEHYKTPMLLLGYQQRWCADLTPVKVCEKSRRIGLSWGEAADSALFAASQKGMDTWYIGYNKDMAQEFIRDCADWAKAYGLAAGEIEETEEIFKEGDEEKAILAYVIRFSSGWRITALSSRPSNLRGKQGRVIIDEAAFHDDLPELLKAAMALLMWGGQVHIISTHNGVDNPFNELVNEVRAGKKPYSLHTITFDDAIKDGLYQRICLRLGRTWSQQAQDEWVAEIRASYGDAAAEELDCIPRNSGGAWLTRALIESRMNADTPRLCLEKKDEFALQPEPIRNREIAQWCDENLYPVLTALPEKQRHFLGMDFARSGDLSVIAIGQEQSDLCLKNVLLLELSNIPFAQQEQIYFYIGDRLPRFSKAANDARGNGQSLSEKAFDRYGAIVEGVMLSESWYREHTAPFKAALEDDTLFDIVKNDDVLADLRAFQVVKGIPRLPDKRTVGQNKTKRHGDAAIAYLLLHYAYRTDQSFEINFRSTGTRTTTQLFNNNSFERVRTGRGFGSIRGGNDFRGY
MGSDKIHHHHHHMTLLDKDLVSIQEVRTLVRRSKVAQEKLSKMSQEQIDKIVKAVVDAAFNNATKLAKMANEETGFGKWEDKVIKNTFASMGVYETLKNTKTIGIIGEDKEANTIDIATPVGVVAGLIPSTNPTSTVIYKTIISLKAGNTIVFSPHPNAKNCILETVNIISDAAIKAGAPEDSILCITNPSIVGTNELMKHKDTNLILATGGEAMVRAAYSSGTPAIGVGPGNGPAFIDKSANVKLAIKRIIDSKTFDNGVICASEQSIVIEKSMEETVLKELKNQGAYVLNEEESERLAKFILRANGTMNPQIVGKSVEVIANLADLTNVPKNTKVLVARENKVGHNVAYSREKLTPILAFYVEENVEAIMNRCREILLNEGAGHTFSMHVNDEELVKRFALNMPVSRILVNTPSALGGIGASTNLVPALTLGCGAIGGSSTSNNIGPLDLINVKRVAYGIKEIEELGRDKSQVEKSMFDSMDKEELINLLVQKLFKELA
MGSDKIHHHHHHMTLLIVGATGTLGRQVARRAIDEGYKVRCLVRSSKKAAFLKEWGAELVPGNLRYPDTLAAALVGVTQVIDASTSRPTDSLSIKQVDWEGKVALIQAAKAAGVERFIFFSILDADKYPEVPLMEIKRCTELFLAESGLNYTILRLAGFMQGLIGQYGIPILEGQPVWVTGNSSPIAYMDTQDIAKFAIRALSVPETENQAFPVVGTRAWSAEEIINLCERLSGKDARVTRMPISLLRAVRGLMRSFQWGWNVADRLAFTEVLASGKQLNASMDEVYTVFGLDPQQTTTLESYLQEYFSRIMKKLKEVDYQKNKNKKQKPKKTPFKQSSKANSQ
MGSDKIHHHHHHMTLLLKENDVINLLDYKQIYGALVNAFLLFENKFAINLERSRISFHGTTLTFQAAGMENYIGYKTFISGNHLTFLYDTSGNLLSIIESDRLSQARTAVLSILATDYVYGDFSSLGVIGLGKYGLAIVEIANQLKKGIKINVFTPSQQRMEKALSILRGEGIDVSPKDSIKRVCEESEVVTTITKAKDPFLKLEYVNNKRIHINAMGSNIPEKIEIFPEVIKASNLIVVEELEHEFKRIRRVSHRKRMGMLDMSKITLLSWILSRKINVQKEGITIFKSVGIGLEDLAVGKLIYEKALSKGLGTEIEVKGVWYRESEKK
MGSDKIHHHHHHMTLNIDQESCIKCGKCVRVCPSDIFTQERAGETIGLVRVESCIVCGHCVDVCPTGSVSHSEFPPEKTHTIDYSQMPTPEQVMLLIKSRRSNRTLTSRPVPKEMLDKIVEAAHSAPTATNSQSLSFTVVTDPRKLRQVSDYTIGVFDSLAKLLLNPVVKCVVKPFMKDVYKYVPVFNRLKEEHKAGKDPILRKATALLLIHTPKSNRFGSEDANLAYQNASLMAQSLGVSQIYMGFVLTAIRQEGKDTLAKTLGIDGKIQAIMALGIPAFKYPKYTDRKEIVKNYIE
MGSDKIHHHHHHMTLSKERKLHIPFERDGDLMDIGSYPHWLQDVVGTVRAARDRVRFHEVFSLMRDGRLAPRQLAAFFVNGWPVVEQFPKYMSMNLLKANGTNSSGEEKARRYLIRNIRVELNHVEHWVNWAEASGVPRRQLTDGDSPPAALALSHWCWKSSSADTLAASIAATNYAIEGVTGEWSADLCRSDVYEMGFPEAVRGRAMRWLRLHSSYDDKHPWEALDIVATILGQSPSTEQVRDVAAGIERSFRYFEMSLSCCLDA
MGSDKIHHHHHHMTLTKEQLLNRGIEVIDKAENEGITLRVIGGAAIALIAKKGSELYPRVYKDIDYFGLSSQSTKISRFLEGIGLIPNKRFNALHGHIRLMFFDPIINSTVDVFLDEFVMCHKLVLKDRLRIMKYTIPTSDLFLTKMQIIQLTENDKKDIAALLYDVELGERDDEKTMNYNYIAKILSEDWGFYKTYTINHDRVLEFMKNDKNREIIEPKLVKLREIIEKHPKSIKWKMRAKIGEKVKWYEEPEEVNTNFTQQ
MGSDKIHHHHHHMTMDKLLTVCGLSLEVARTGQQVVKSVSFDLAPGEIFGIVGESGSGKTLATRALISLLPPTIKVADGSVSYKGRDVLKMKENELRHLRGAEIGVVFQEPMTSLNPSMTIGRQLEEGLILHTKASAQERRSLILDMLKRVGIRDPEGALSSYPHEFSGGMRQRIMLASVMLLKPALLIADEPTTALDAVIQRDVMELMVELTRAEGTAILLISHDLPMVARYTSRIVVMEKGAIVEKGRTEDLLKAPQHPYTKKLLSSLPFRGRPRQIDLTSVPMISARDIIVDYAGRKSLFRKNKPKRALHGVSIDIHEGEVVALVGGSGSGKTTLGRTIAGLVTESEGRIQFQGRPRTENWTDYRLNCQMVFQDPYSSLDPRMTIEALVEEALRPVPGLDGKAKRKRTLETLEEVGLGVDYAGRYPHELSGGQRQRVAIARAIARRPRFLIADEPVSALDVTVRAQVLDLFSDLQKRYGFSCLFISHDLGVVEQVADRVVVMQDGRIIEEGDRDTIFDSPKEAYTRRLLSAIPALDQNEKGGVTLKWRLEN
MGSDKIHHHHHHMTNETTTSILEYADTHLKFSMEDLFAYLHKKIGINKSSLAWYLFKLVNENKLVRTGRGMYARILKPSFAPQPAEEVKEVYDLLTTHFPFAKFCIYQGEIIAPLQHHLSPNRIIYVETDRGTAETVFHLLKDDYQDVYLRPNKEMIYRYVDMDSRVFIVKNLVSEAPLQHISGVPIPTLEKLLVDILRDVDFFYLQGSESERIIENAFNLYAINRSRLFRYAGRRKVKEELSTILENLNIV
MGSDKIHHHHHHMTNGVLWRSSLLSDYWFSHLPAALQDSVLHAARQVRKTPGKMLFEKGAAPCGLYALLEGDVRIGGAHFQRLGPRLEPIRRPYWFGEVSLFDEMPRRFDVCSLEQTIFLQVPHSFLVSLLDRHPEYWRHFAALLSQKLGLPLQNPEKLQLLPPRSRVASRLLLLSEGYGPLSHARRLITLDEVTSLQDLSHSALLEVLEDLHERKVVRLGIGQLEVFDVDKLRKIANFSRARAVC
MGSDKIHHHHHHMTNQIKIAVIGVGRWGVHLLRNFLAHPQVDVVAVVDPHPERLAAIKQQFNLDENVVLTTQWEDLKKVPGLTGVAIATPATTHYALIKDSLQQGYHVLAEKPLTLDPAECRELCQLAEQHHLILMVDHTYLFHPAVEQGQTVVQAGKLGDLRYGYATRTHLGPVRQDVDALWDLAIHDIAIFNAWLGQIPVKVQATGTVWLQGAGEQGSREAEGKKDTNFPLPQGLADLVWLTLTYPDGFQAYIHLCWLNPDKQRRLGIVGSLGSLIFDEMSRSSPLTLLHGEFEQQGNHFIPVNQKQVVLELEPGEPLGRVCSCFVDSILNNTPSEVSSGWVGTQLVEILAALTVSLEQGGQPVFLNNCSQV
MGSDKIHHHHHHMTNTETIQSLIDSGEGYNVEFKVRVPSKVRELTEEICAFANADGGYLLIGVDDNGQIIGTGLENDKRSAIQGSISEISPALHCDMYAVNIEDKTVWVIDVPSGKDKPYIFSGSIFVREGANSQKLRTVEEMRSFFQECNKIFFDAIPCSWFNIYTDADEQAIKDFRTEAKLSPSTANKQIFENLELFTDNGVAKNGTAMFFGKQPERKFPHAVTRCVLFKGTTKVYIIDDKTFGGPLYQQYLQAMAWLESKLQVAYKIEGAGPREEIWEIPLTVFKEAIINALSHRDYYEQGATITIEMFDDRVEVSNPGGLLPIVAKDFGHKSMTRNPLIFGLFTRMHLVERVASGIPRMQEAMKEANLPEPDFHTDGMFTVIFKRGISIKNDTVNDTVNDTVNDTVNSKEKEVLKIIQKYPGLNSSKIAELIKKSIPTAKRHLNSLVKSGLIEFRGAQKTGGYYIINQQ
MGSDKIHHHHHHMTPIPFYVPVGNECELFETAWQRRLPLLLKGPTGCGKTRFVTHMAARLQRPLFTVSCHDDLTAADLTGRFLIKGGETVWVDGPLTRAIREGGICYLDEIVEARKDVTVVLHPLTDDRRMLPLERTNEILHAPDTFMLVVSYNPGYQNILKSLKPSTRQRFVALSFNFPPPEIELEIIASESGLARDRCTALVNLATRLRLLKDVDLEESVSTRLLVYCATLMAAGLDPYQAAQAALVEPLSDETEVQQGLLELIHATFG
